Patent US20250296960A1, “PEPTIDE COMPOSITIONS AND METHODS OF USE THEREOF” (priority 2022, published 2025)
Numbered stars: 1 amine (or outer) side, 2 acyl side, 3 side chain; on linkers, the order of the positions; unused ones are H or OH. Square brackets hold non-standard residues; d marks the D form. Primed or numbered codes have the meaning given here. Side chains are listed from the residue outwards. Ends that are not written are not given here. Peptide text beside a SMILES is read from it. * marks the point of attachment. C18″ = C18 fatty acid moiety (of 2OEG-γGlu-C18, K*); Biotin = O=C1N[C@H]2[C@H](CS[C@H]2CCCCC(=O)*)N1; C18 diacid = O=C(O)CCCCCCCCCCCCCCCCC(=O)*; γGlu = O=C(O)[C@H](CCC(=O)[*:2])N[*:1]; AEEA = NCCOCCOCC(=O)O; Aib = CC(C)(N)C(=O)O

T1: human GIPR (Homo sapiens, UniProt P48546)
T1 construct: host or cells: CHO-K1
T1 sequence (P48546 22-466): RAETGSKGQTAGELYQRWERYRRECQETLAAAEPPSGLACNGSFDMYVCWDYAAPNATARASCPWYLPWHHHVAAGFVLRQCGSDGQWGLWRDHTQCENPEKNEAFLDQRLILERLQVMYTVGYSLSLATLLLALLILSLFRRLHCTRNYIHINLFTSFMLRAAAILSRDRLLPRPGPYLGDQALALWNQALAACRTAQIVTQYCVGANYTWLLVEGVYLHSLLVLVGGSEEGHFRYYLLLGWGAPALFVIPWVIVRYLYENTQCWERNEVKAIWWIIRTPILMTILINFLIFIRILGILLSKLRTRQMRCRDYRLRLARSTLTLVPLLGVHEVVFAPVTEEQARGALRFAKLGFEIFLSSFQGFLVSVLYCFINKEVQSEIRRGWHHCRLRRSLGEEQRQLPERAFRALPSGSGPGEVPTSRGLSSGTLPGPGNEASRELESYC

T2: human glucose-dependent insulinotropic polypeptide receptor (GIPR), expressed on CHO-K1 cells (human, UniProt P48546 22-466)
T2 sequence (looked up): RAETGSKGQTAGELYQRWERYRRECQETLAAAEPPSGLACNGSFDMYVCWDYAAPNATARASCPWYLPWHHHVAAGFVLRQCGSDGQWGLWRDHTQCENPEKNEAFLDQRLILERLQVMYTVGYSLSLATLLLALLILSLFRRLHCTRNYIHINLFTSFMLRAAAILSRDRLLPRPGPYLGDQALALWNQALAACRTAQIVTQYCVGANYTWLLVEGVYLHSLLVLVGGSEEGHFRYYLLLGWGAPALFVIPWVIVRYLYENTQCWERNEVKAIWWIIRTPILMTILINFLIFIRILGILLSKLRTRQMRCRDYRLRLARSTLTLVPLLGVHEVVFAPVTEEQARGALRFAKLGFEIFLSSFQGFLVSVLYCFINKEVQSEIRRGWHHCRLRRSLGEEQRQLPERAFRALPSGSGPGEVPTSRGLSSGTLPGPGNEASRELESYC


Assays:
human GLP-1R = target: T3, human GLP-1R (Homo sapiens, UniProt P43220); experiment: cAMP assay (HitHunter cAMP) in GLP-1R-expressing CHO-K1 cells (GLP-1R+ cells); format: cell-based; settings: Table 31
T3 construct: host or cells: CHO-K1
T3 sequence (P43220 24-463): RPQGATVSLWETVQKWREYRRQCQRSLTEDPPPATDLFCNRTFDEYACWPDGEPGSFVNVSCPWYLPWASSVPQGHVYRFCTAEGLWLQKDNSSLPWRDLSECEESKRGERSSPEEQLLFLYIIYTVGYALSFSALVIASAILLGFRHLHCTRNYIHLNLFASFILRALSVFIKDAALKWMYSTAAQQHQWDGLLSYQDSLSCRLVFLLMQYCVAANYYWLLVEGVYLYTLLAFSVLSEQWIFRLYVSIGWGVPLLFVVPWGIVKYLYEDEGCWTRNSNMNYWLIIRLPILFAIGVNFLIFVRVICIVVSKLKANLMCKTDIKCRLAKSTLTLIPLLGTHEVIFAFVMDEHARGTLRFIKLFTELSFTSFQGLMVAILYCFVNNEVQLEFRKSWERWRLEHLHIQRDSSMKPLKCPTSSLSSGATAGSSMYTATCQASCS
In short: (§1)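 CHO-K1 cells expressing each receptor were plated overnight, then treated with peptide in cAMP assay buffer for 30 min at 37 °C. cAMP was detected by antibody plus detection solution (1 h) and Solution A (3 h), both at room temperature in the dark. Luminescence was the read-out.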

human GCGR = target: T4, human GCGR (Homo sapiens, UniProt P47871); experiment: cAMP assay (HitHunter cAMP) in GCGR-expressing CHO-K1 cells (GCGR+ cells); format: cell-based; settings: Table 31
T4 construct: host or cells: CHO-K1
T4 sequence (P47871 26-477): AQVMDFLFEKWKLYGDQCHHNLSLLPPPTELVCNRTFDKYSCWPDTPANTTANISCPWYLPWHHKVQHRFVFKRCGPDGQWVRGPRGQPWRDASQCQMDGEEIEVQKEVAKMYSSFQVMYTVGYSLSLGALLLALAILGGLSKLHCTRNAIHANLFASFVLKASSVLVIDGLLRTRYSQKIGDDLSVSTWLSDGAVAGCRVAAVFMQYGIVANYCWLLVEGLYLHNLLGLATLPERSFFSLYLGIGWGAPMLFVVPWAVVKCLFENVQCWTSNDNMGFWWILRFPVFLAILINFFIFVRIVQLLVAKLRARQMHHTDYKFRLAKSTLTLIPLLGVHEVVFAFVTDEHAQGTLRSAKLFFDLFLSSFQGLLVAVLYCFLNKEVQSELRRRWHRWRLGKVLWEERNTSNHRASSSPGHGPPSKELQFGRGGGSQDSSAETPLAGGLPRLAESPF
In short: as §1

human GIPR = target: T1, human GIPR; experiment: cAMP assay (HitHunter cAMP) in GIPR-expressing CHO-K1 cells (GIPR+ cells); format: cell-based; settings: Table 31
In short: as §1

[1] = In vitro enzymatic stability against FaSSIF/P (pancreatin in FaSSIF, pH 6.5); format: in vitro ADME; settings: simulated gi fluid, pH 6.5, Half-life (min)
Experimental: This study was conducted to determine the enzymatic stability of SEQ ID NOs. 77, 86, 87, 89, 90, and 91 after biotinylation in artificial intestinal environment. The test samples were prepared by mixing stock solutions of peptide and pancreatin dissolved in FaSSIF solution (pH 6.5) in a weight ratio of 25:1. The test samples were incubated at 37° C. for 120 min. The sampling from test samples was proceeded at the predetermined time points (10, 30, 60, and 120 min) and stopped by 10% TFA solution.
Analytical HPLC was performed to determine the remaining amount on an ACQUITY Premier system (Waters, USA) with an ACQUITY CSH C18 column (Waters, USA) at 35° C. using 0.1% TFA in water and acetonitrile. The remaining amount was determined as a percentage of the peak area at the sampling time point relative to the peak area of the initial sample.
For the stability against FaSSIF/P, the test samples were prepared by mixing stock solutions of peptide and pancreatin dissolved in FaSSIF solution (pH 6.5) in a weight ratio of 19:1. The test samples were incubated at 37° C. for 120 min. The sampling from test samples was proceeded at the predetermined time points (10, 30, 60, and 120 min) and stopped by 10% TFA solution.

[2] = target: T5, human GLP-1 receptor (GLP-1R), expressed on CHO-K1 cells (human, UniProt P43220 24-463); experiment: cell-based or functional assay
[3] = target: T6, human glucagon receptor (GCGR), expressed on CHO-K1 cells (human, UniProt P47871 26-477); experiment: cell-based or functional assay
T6 sequence (P47871 26-477): as above

[4] = target: T2, human glucose-dependent insulinotropic …; experiment: cell-based or functional assay
[5] = target: T5, human GLP-1 receptor (GLP-1R), …; experiment: cell-based or functional assay; remark: listed apart in the source
[6] = target: T6, human glucagon receptor (GCGR), …; experiment: cell-based or functional assay; remark: listed apart in the source
[7] = target: T2, human glucose-dependent insulinotropic …; experiment: cell-based or functional assay; remark: listed apart in the source
[8] = target: T5, human GLP-1 receptor (GLP-1R), …; experiment: cell-based or functional assay; remark: listed apart in the source
[9] = target: T6, human glucagon receptor (GCGR), …; experiment: cell-based or functional assay; remark: listed apart in the source
[10] = target: T2, human glucose-dependent insulinotropic …; experiment: cell-based or functional assay; remark: listed apart in the source

Row | Molecule | Ratio vs. GLP-1R, GLP-1R (human GLP-1R) | Relative % to native ligand, GLP-1R (human GLP-1R) [%] | Ratio vs. GLP-1R, GCGR (human GCGR) | Relative % to native ligand, GCGR (human GCGR) [%] | Ratio vs. GLP-1R, GIPR (human GIPR) | Relative % to native ligand, GIPR (human GIPR) [%] | half-life [1] [min] | Relative % to native ligand [2] [%] | Relative % to native ligand [3] [%] | Relative % to native ligand [4] [%] | Ratio vs. GLP-1R [5] | Ratio vs. GLP-1R [6] | Ratio vs. GLP-1R [7] | Relative % to non-lipidated peptide [8] [%] | Relative % to non-lipidated peptide [9] [%] | Relative % to non-lipidated peptide [10] [%]
1 | CSCC[C@H](NC(=O)[C@H](CCCCNC(=O)CCCC[C@@H]1SC[C@@H]2NC(=O)N[C@@H]21)NC(=O)[C@H](Cc1ccc(O)cc1)NC(=O)[C@H](CC(=O)O)NC(=O)[C@H](CC(C)C)NC(=O)[C@H](CC(C)C)NC(=O)[C@H](CCCCNC(=O)COCCOCCNC(=O)COCCOCCNC(=O)CC[C@H](NC(=O)CCCCCCCCCCCCCCCCC(=O)O)C(=O)O)NC(=O)[C@H](CO)NC(=O)[C@H](Cc1ccc(O)cc1)NC(=O)[C@H](CC(=O)O)NC(=O)[C@H](CO)NC(=O)[C@@H](NC(=O)[C@H](Cc1ccccc1)NC(=O)[C@@H](NC(=O)CNC(=O)[C@H](CCC(N)=O)NC(=O)C(C)(C)NC(=O)[C@@H](N)Cc1ccc(O)cc1)[C@@H](C)O)[C@@H](C)O)C(=O)N[C@@H](CCC(N)=O)C(=O)NC(C)(C)C(=O)N[C@@H](CC(=O)O)C(=O)N[C@@H](Cc1ccccc1)C(=O)N[C@H](C(=O)N[C@@H](CCC(N)=O)C(=O)N[C@@H](Cc1c[nH]c2ccccc12)C(=O)N[C@@H](CC(C)C)C(=O)N[C@@H](CC(C)C)C(=O)N[C@@H](CCC(=O)O)C(=O)NCC(=O)NCC(=O)N1CCC[C@H]1C(=O)N[C@@H](CO)C(=O)N[C@@H](CO)C(=O)NCC(=O)N[C@@H](C)C(=O)N1CCC[C@H]1C(=O)N1CCC[C@H]1C(=O)N1CCC[C@H]1C(=O)N[C@@H](CO)C(N)=O)C(C)C [compound 91] (H-Y[Aib]QGTFTSDYSK([AEEA-AEEA-γGlu-C18 diacid])LLDYK(Biotin)MQ[Aib]DFVQWLLEGGPSSGAPPPS-NH2; N-terminus and C-terminus assumed) | 100 | 19 | 135 | 26 | 970 | 184 | 33.3 | – | – | – | – | – | – | – | – | –
2 | Y[Aib]QGTFTSDYSKYLDYK([AEEA-AEEA-γGlu-C18″])MARDFVQWLIEGGPSSGAPPPS-NH2 [Peptide No. 5-1F] | – | – | – | – | – | – | – | 61 | 5030 | 2 | 100 | 8250 | 3 | 52 | 76 | 14
3 | H[Aib]QGTFTSDYSKLLDYMMQRDFVQWLLEGGPSSGAPPPSC-NH2 [Peptide No. 5-5] | – | – | – | – | – | – | – | 1690 | 260 | 526 | 100 | 15 | 31 | 100 | 100 | 100
4 | Y[Aib]QGTFTSDYSKYLDYMMARDFVQWLIEGGPSSGAPPPSC-NH2 [Peptide No. 5-1] | – | – | – | – | – | – | – | 117 | 6650 | 13 | 100 | 5660 | 11 | 100 | 100 | 100
5 | Y[Aib]QGTFTSDYSKLLDYMMQRDFVQWLLEGGPSSGAPPPSC-NH2 [Peptide No. 5-3] | – | – | – | – | – | – | – | 638 | 969 | 7120 | 100 | 152 | 1120 | 100 | 100 | 100
6 | Y[Aib]QGTFTSDYSK([AEEA-AEEA-γGlu-C18″])YLDYMMARDFVQWLIEGGPSSGAPPPS-NH2 [Peptide No. 5-1D] | – | – | – | – | – | – | – | 151 | 55 | 41 | 100 | 36 | 27 | 129 | 1 | 323
7 | Y[Aib]QGTFTSDYSK([AEEA-AEEA-γGlu-C18″])YLDYMMQRDFVQWLIEGGPSSGAPPPS-NH2 [Peptide No. 5-2D] | – | – | – | – | – | – | – | 174 | 3 | 93 | 100 | 1 | 54 | 35 | 3 | 13
8 | Y[Aib]QGTFTSDK([AEEA-AEEA-γGlu-C18″])SKYLDYMMARDFVQWLIEGGPSSGAPPPS-NH2 [Peptide No. 5-1E] | – | – | – | – | – | – | – | 57 | 74 | 1 | 100 | 130 | 1 | 48 | 1 | 5
9 | H[Aib]QGTFTSDYSK([AEEA-AEEA-γGlu-C18″])LLDYMMQRDFVQWLLEGGPSSGAPPPS-NH2 [Peptide No. 5-5D] | – | – | – | – | – | – | – | 305 | 2 | 212 | 100 | 1 | 70 | 18 | 1 | 40
10 | H[Aib]QGTFTSDYSK([AEEA-AEEA-γGlu-C18″])YLDYMMARDFVQWLIEGGPSSGAPPPS-NH2 [Peptide No. 5D] | – | – | – | – | – | – | – | 35 | 72 | 3 | 100 | 204 | 8 | 6 | 10 | 93
11 | Y[Aib]QGTFTSDYSKYLDYMMQRDFVQWLIEGGPSSGAPPPSC-NH2 [Peptide No. 5-2] | – | – | – | – | – | – | – | 495 | 91 | 738 | 100 | 18 | 149 | 100 | 100 | 100
